Experimental findings from patent publication US20180188270A1, “DIAGNOSTIC TEST FOR ALZHEIMER'S DISEASE BASED ON IDENTIFICATION OF A PROTEOLYTIC PATHWAY” (Health Research, Inc., priority 2015, published 2018) are described below.

The test system of one data set is plasma PEPD. Put plainly: Plasma PEPD concentration in mice by ELISA. Format: in vivo, mouse. Conditions: for average plasma level of total PEPD (hPEPD plus mPEPD), increase: hPEPD 10 mg/kg i.p., vs control. Here is the method: Animal studies. All animal studies were performed in accordance with protocols approved by the Institutional Animal Care and Use Committee at Roswell Park Cancer Institute. Male mice at 7-8 weeks of age were used, including wild type (WT) mice (C57BL/6), and mice deficient in FXII (C57BL/6-FXII^−/−) or FVII (C57BL/6-FVII^tTA/tTA). WT C57BL/6 mice were purchased from Taconic. C57BL/6-FXII^−/− mice and C57BL/6-FVII^tTA/tTA mice were bred in our own facility and genotyped. The breeders were kindly provided by Dr. Francis J. Castellino at University of Notre Dame. […] CCl4 was dissolved in corn oil, whereas all other substances were dissolved in PBS. The vehicle or the test substance was given to mice in 0.1 ml volume per 20 g body weight. Blood was collected from the mice at specific times by cardiac puncture at the time of sacrifice by carbon dioxide, and heart, liver and kidney were also collected from some of the mice. Blood was collected into K3 EDTA-containing tubes (Multivette 600 from Sarstedt), unless specified otherwise. All blood samples were promptly centrifuged to obtain plasma samples.
Measurement of plasma levels of PEPD, SRC, Aβ1-42 and FI. […] The plates were washed three times with phosphate buffered saline tween-20 (PBST) and the coated wells were blocked by incubation with 200 μl/well of 1% BSA in PBS for at least 2 h at RT. After another round of wash with PBST, the plates were incubated with appropriately diluted Aβ1-42 standard, SRC standard or plasma samples (100 μl/well) for 2 h at RT. The plates were then washed with PBST and incubated with an anti-Aβ1-42 rabbit polyclonal antibody (sc-9129) or anti-SRC rabbit monoclonal antibody (2123) at 100 μl/well for 2 h at RT. The plates were washed again with PBST, and each well was incubated with a goat anti-rabbit IgG-HRP conjugate (100 μl) for 1 h at RT. After yet another round of wash with PBST, each well was incubated with 100 μl of HRP substrate 3,3′,5,5′-tetramethylbenzedine (Cell Signaling, 7004). Upon adequate color development, 100 μl of stop solution (Cell Signaling, 7002) was added to each well, and absorbance at 450 nm was promptly recorded by a microtiter plate reader. Plasma FI concentration was determined using an assay kit (400-374-130050) from GenWay Biotech, following the manufacturer's instruction.

In the next data set the target is T1, FVIIa (Homo sapiens, UniProt P08709).
T1 construct: purchased Haematologic Technologies HCVIIA-0031 (FVIIa); RTF-0300 (TF)
Put plainly: In vitro degradation by FVIIa with or without TF. Conditions: for hPEPD remaining (enzymatic activity): 60 min. Format: biochemical. As for the experimental part:
To determine whether a blood coagulation factor degrades hPEPD, hPEPD at 90 nM or lower concentrations (10 or 40 nM) was incubated with solvent, 100 nM FIIa, 100 nM FXa, 10 nM FVIIa with or without 10 nM TF, or 10 nM FVII with or without 10 nM TF and/or 100 nM FIIa in PBS in a total volume of 100 μl containing 5 mM CaCl2 for desired times at RT. […] To compare the hPEPD-degrading activities of different plasma samples, 9.2 pmol of hPEPD was incubated with 100 μl of plasma from WT mice or FVII^tTA/tTA mice at RT, with or without FIIa or FXa (10 pmol), and to maximize detection of any activity, all incubations lasted for 24 h. […] To measure remaining hPEPD, the incubated samples were cleared of potential fibrin clots by centrifugation and then analyzed by SDS-PAGE and silver staining (using the LC 6070 kit from Invitrogen), IB or measurement of hPEPD enzymatic activity. hPEPD enzymatic activity was measured using glycyl-proline as a substrate (as described in Zbucka et al., Folia Histochem Cytobiol 2007; 45 Suppl 1: S181-185). The precipitates from each incubated sample were washed with PBS twice and then resuspended in 2.5% SDS (20 μper sample); each solution was mixed with 10 μl loading dye and analyzed for hPEPD by IB, using pure hPEPD as a standard and factor FXIIIa as a binding control, respectively.
All samples after incubation were resolved by SDS-PAGE and stained by silver.
Each value is mean±SD (n=3).

“And” between values parts separate entries of the source, which are not always exact repeats. Equal values may be shown once.

T1 sequence (P08709 61-212 limits assumed): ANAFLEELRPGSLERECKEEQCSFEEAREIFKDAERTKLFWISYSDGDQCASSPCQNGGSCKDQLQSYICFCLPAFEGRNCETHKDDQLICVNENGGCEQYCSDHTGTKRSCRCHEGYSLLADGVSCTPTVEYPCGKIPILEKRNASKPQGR
T1 sequence (P08709 213-466 limits assumed): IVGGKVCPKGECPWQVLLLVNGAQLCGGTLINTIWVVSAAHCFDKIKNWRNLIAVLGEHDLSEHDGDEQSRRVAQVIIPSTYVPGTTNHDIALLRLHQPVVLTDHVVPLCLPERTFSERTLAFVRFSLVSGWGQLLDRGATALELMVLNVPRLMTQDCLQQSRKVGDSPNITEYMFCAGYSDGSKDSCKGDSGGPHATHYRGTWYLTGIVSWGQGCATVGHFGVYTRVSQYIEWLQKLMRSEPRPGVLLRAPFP
T1 sequence (P13726 33-295 partner): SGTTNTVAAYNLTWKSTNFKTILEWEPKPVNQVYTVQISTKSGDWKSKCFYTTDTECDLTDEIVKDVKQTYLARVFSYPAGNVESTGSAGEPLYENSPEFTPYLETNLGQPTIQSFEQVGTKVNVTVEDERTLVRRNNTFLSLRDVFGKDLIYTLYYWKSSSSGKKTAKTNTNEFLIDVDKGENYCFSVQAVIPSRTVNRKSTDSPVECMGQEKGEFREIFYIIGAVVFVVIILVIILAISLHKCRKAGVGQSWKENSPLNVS

B1: hPEPD: recombinant human prolidase (PEPD), 6xHis tagged to the carboxy terminus (protein, UniProt P12955 2-493, looked up)
Xaa-Pro dipeptidase: AAATGPSFWLGNETLKVPLALFALNRQRLCERLRKNPAVQAGSIVVLQGGEETQRYCTDTGVLFRQESFFHWAFGVTEPGCYGVIDVDTGKSTLFVPRLPASHATWMGKIHSKEHFKEKYAVDDVQYVDEIASVLTSQKPSVLLTLRGVNTDSGSVCREASFDGISKFEVNNTILHPEIVECRVFKTDMELEVLRYTNKISSEAHREVMKAVKVGMKEYELESLFEHYCYSRGGMRHSSYTCICGSGENSAVLHYGHAGAPNDRTIQNGDMCLFDMGGEYYCFASDITCSFPANGKFTADQKAVYEAVLRSSRAVMGAMKPGVWWPDMHRLADRIHLEELAHMGILSGSVDAMVQAHLGAVFMPHGLGHFLGIDVHDVGGYPEGVERIDEPGLRSLRTARHLQPGMVLTVEPGIYFIDHLLDEALADPARASFLNREVLQRFRGFGGVRIEEDVVVTDSGIELLTCVPRTVEEIEACMAGCDKAFTPFSGPK
modifications: C-terminal 6xHis tag
notes: recombinant human prolidase (PEPD), 6xHis tagged to the carboxy terminus
Take B1: the “plasma level of total PEPD, increase” value with plasma PEPD (FVII tTA/tTA mice, hPEPD 0.2 mg/kg i.p., 6 h) is recorded as 12.0 fold; with plasma PEPD (FXII−/− mice, hPEPD 0.2 mg/kg i.p., 6 h, no EP) it was 12.5 fold; in the data set with plasma PEPD (FXII−/− mice, hPEPD 4 mg/kg i.p., 24 h), 134.6 fold; in the data set with plasma PEPD (WT mice, hPEPD 4 mg/kg i.p., 24 h), 3.3 fold. The “average plasma level of total PEPD, of control” value stood at 51% with plasma PEPD (WT mice, hPEPD 0.2 mg/kg i.p., 1 h) and 46% in the data set on plasma PEPD (WT mice, hPEPD 0.2 mg/kg i.p., 24 h). Further, in the data set on plasma PEPD (WT mice, hPEPD 0.2 mg/kg i.p., 6 h, no EP), the “plasma level of total PEPD, decrease” value is 66% and 56.3%. The “average plasma level of total PEPD (hPEPD plus mPEPD), increase” value in the data set with plasma PEPD (WT mice, 1 h) is reported as 19.4 fold; with plasma PEPD (WT mice, 24 h) it was 15.1 fold. Further, the “plasma level of total PEPD, difference between FVII tTA/tTA and WT mice” value with plasma PEPD (hPEPD 0.2 mg/kg i.p., 6 h) came out at 68.9 fold. Moreover, the “average plasma level of total PEPD, higher in FXII−/− mice than in WT mice” value with plasma PEPD (hPEPD 0.2 mg/kg i.p., 6 h, no EP) amounted to 53.8 fold. In addition, the “proteolysis/fragmentation by FVIIa plus TF” value in the data set with FVIIa (FVIIa 10 nM plus TF 10 nM, CaCl2-containing PBS, RT) is “caused rapid and extensive hPEPD proteolysis”. Also, the “degradation by FVIIa in the absence of TF” value with FVIIa (FVIIa 10 nM, no TF) is on record as “degraded hPEPD”. Besides, the “hPEPD remaining (enzymatic activity)” value with FVIIa (hPEPD 10 nM, FVIIa 10 nM plus TF 10 nM, RT) is listed as 35.9%; in the data set with FVIIa (hPEPD 40 nM, FVIIa 10 nM plus TF 10 nM, RT), 46.3%; with FVIIa (hPEPD 90 nM, FVIIa 10 nM plus TF 10 nM, RT) it was 52.4%.
